Reference: the DeepSol protein solubility set

assay: soluble on expression in E. coli; label from the status in PepcDB or PDB records

Sequence	soluble on expression in E. coli
MGSDKIHHHHHHMRKPRVFIGSSVESLPIADAIAENLEFDAEVTIWRNGTFNLSSNALDDLISKAKSVDFSIFIFSPDDLTIMKSREKYAVRDNVVFELGLFIGAIGKNRCFIVKPRDVDLHFPSDLLGITPTDFDANRSDEDLASSLNYSATQIKRAFKAQGLLELDSVQEKPRIDVNAQLATLTDTDMIALSVLLESVNSDVDGCASWDLYNRFNNYDFSSAQVNLAVIKLTRSGMIEKLNTSDFNGNEYFSYKLTEYGIDVCLSNQNRIETLIAPKKRQSGRDVPQQPPVRS	not soluble
AFTGKYEIESEKNYDEFMKRLALPSDAIDKARNLKIISEVKQDGQNFTWSQQYPGGHSITNTFTIGKECDIETIGGKKFKATVQMEGGKVVVNSPNYHHTAEIVDGKLVEVSTVGGVSYERVSKKLA	soluble
DRFVYTCNECKHHVETRWHCTVCEDYDLCITCYNTKNHDHKM	not soluble
MMNIQVLKVSGNGNINAIADTINKYVIEDGIVHIDAIGIKATYTTVKALIQVVESLVNKGYRFNLRPYYVKVNTAGNDIQPISKTAIRWTLIAKEK	soluble
MGHHHHHHHHHHSSGHIDDDDLHMDMHSGTFNPQDFAWQGLTLTPAAAIHIRELVAKQPGMVGVRLGVKQTGCAGFGYVLDSVSEPDKDDLLFEHDGAKLFVPLQAMPFIDGTEVDFVREGLNQIFKFHNPKAQNECGCGESFGV	soluble
MASMTGGQQMGRGSDYFEPQQQQQQQQQQPQGASTPKVFVGYSIYKGKAALTVEPRSPEFSPLDSGAFKLSREGMVMLQFAPAAGVRQYDWSRKQVFSLSVTEIGSIISLGTKDSCEFFHDPNKGRSDEGRVRKVLKVEPLPDGSGHFFNLSVQNKLINLDENIYIPVTKAEFAVLVSAFNFVMPYLLGWHTAVNSFKPEDASRSNNANPRSGAELEWNLEHHHHHH	soluble
MGSDKIHHHHHHMIKNAVKKIIDMEWFARMMEVLDHRSDNRMTELGMLSQAFEFIKINEVCGDYLEFGLWRGKTFGYAHRMKHRYRRQDMKLWGFDSFQGLPDTGAHPDNIWYKGQFACSRPEFESILKSRGIRSCEYELVEGFYRESLNDATRRRLAGRKAAIVYIDCDLYDSTVEVLDFIQPYLVNGSIVCFDDFYNYKADPEQGEQKALSDFLRKESGICFIPYMAYAPLGKSFICRRT	not soluble
MGSDKIHHHHHHMAIRSSVLALCVATLLTGCQNLNTNTLMQSGAQAFQAATLSDAQVKALSDQSCEQMDKEAKIAPADSKYTQRLNKIADALGHDINGTPANYKVYLEKDVNAWAMANGCIRVYSGLMDMMNDNEVEGVLGHEMGHVALGHTRKAMQVAYAATAARTAIASAGGVAASLSQSQLADLGEKLVNSQFSQSQESQADDYSFDLLKKRGINREGLASSFEKLAKLDASHESSMFDSHPSSEGRAKHIRERITAEK	not soluble
MGSDKIHHHHHHAQNNADDKYEILSLTDMFSLFKDSKNSVPQDYDEIYVPGYFYEPSFMYPSPLKKEFCCVAQWRIPNRNCKYLFLEDIFPQNKDSLKQASLELQKIKEKYGMRESAMYQDVPAGYNGIIAKWFTGRLFVLHCPRKLFNTVVSKKASLISIHKGRISDEKQITPDEGKFESSCFPQKGGMILIREDGCWYDDIKRNIDFLISPLINENFPTEFSKHVGREYSFLLEVVPKTGQIIPHLLLPKTLSTDEKMIVSYLEKQIRKFPENSFGPLITIDKKMLYGRYLKFIVKDEKFKIEDYLEY	not soluble
MLLNAVNQNQPTIAAEINYIKPNIQATFDLSTSKKSADTLTEQVDKRVVEITDARLLAKTATLKEDGFGLVANKYHMADYFDDAMVSTELYPQIIKHLMSLTNASKGVVFDHTIRSVEDKLHRAEKRSPIHTVHNDYVASSAQHRLHIELEKQGLKASDYHRYQFINTWIPLVDVVLDSPLAFADMRSVTSEQSHLLQVAYPDRVGEIEGFSYNPNNRWFYFSRMTSKEQLNFKVFDSDKSNAVNRTPHSAFLLPSVAENVQSRVSIELRTILLFNKLEHHHHHH	not soluble
MAARTALGAVCRRLWQGLGNFSVNTSKGNTAKNGGLLLSTNMKWVQFSNLHVDVPKDLTKPVVTISDEPDILYKRLSVLVKGHDKAVLDSYEYFAVLAAKELGISIKA	not soluble
MSLTPRFIDLHTHTTASDGSDSPADLVRKATEAGLAAVAVTDHDTVAGLDEAVAMGHETGIEVVRGCELGVRSEYGEIHILGLWLPEKPETLLDAMKELRRHRNERNERIVDNLRTLGMDITYEEVRALSGGVSVGRPHIALALLRHGYIRTPQEAFDRFIGPGAPAYAPKKVFSPAEGVRLLASCGATVAIAHPMLLRCPEEWLDDTVADLKVAGLDAIEAYHSEHSHKDERRCVDIADRHGLVLTGGSDYHGKAKPAISLGRGRGGLRVTTHVLDNLKRHRRERGLEGHHHHHH	soluble
MPTLLIRLQGPLQSWGTRSRFDHRDTWPYPTKSGVVGLLAAALGRDRREDVSDLAALRMGVRVDRKGVLKVDYQTAQFVYRTEGYVAVSTPKEREWLSRYTKTPIRVDERNATVTSKRYFLSDAAFLVGLEGERALLEALHRALKNPRFPLYLGRKSYVPSPPPYLPDGLVEAPLAEALEGYPYLLGGKPPEDLLLALEAEEGRLVYDQPAGPFSERRFAARFVREEVLPKERVPEGPPAWEVARVAH	soluble
MRPQNTNGDFYVDTTCIDCDTCRWMTPEVFHRVDEMSAVYHQPTNETERLAALQALLSCPTSSIGTVEKLEHHHHHH	not soluble
MLFHDIHDRAVKALPQILDRLIADGYQFAGWNGRDFSVARAPSATAAATVTTGYAKSWAIVIGIDDYARWPKLEYAANDAQAIANTLTGPLGFPSSQVIVLKNAEATRNNILAAFHDRLGDGRAQTNDRVFVFFAGHGATRRLASGRDLGYIIPVDSDPEHLANDAIAMSDLQNIAESLQAKHVLFVMDACYSGLGLTRGGPSSSAYLRENARRIARQMLTAGGADQQVADSGPNGHSVFTWVVLQALAGKGDLNGDGLITGTELAAYVAPAVSAVSAQTPAFGSLPGSQGGEFVFQVPSGEEFLTADTAQLSAAAIALNGRVDAVRPAAVSLEHHHHHH	soluble
MSLSVADIAYVVFNHVDLLEAERFYTDFGLTVAYRNEFEVAFRPAMERSYCYVARKADKPGLVSIGLSAASQEDLVVAAQFPEASPIQAIERPGGGQVVRLTSPDGVNFELVHGIDVYPARPVRDALSINTGIVKTRHGQWQRPELEPASILRLGHVALLTGDFKTNAQWLRSRFGFMPSDVLFADAPENQVGAFFHCTGGNPWTDHHTLALFPSDGSRMHHCSFEIQDLDAQFLGNKWLASRGWKPGWGVGRHILGSQIFDYWFDPAGNLVEHFTDGDLIQAGAAPGMHPLDDDALAMWGPPLTASKFVAMAAREGHHHHHH	soluble
MMRCPECSTEGWRVLPLTVGAHVKEGLWSKIKGDFYFCSLESCEVVYFNEQTVFRKGELKTRVGVKEREEPKPVCYCNRVTEKMLLEAAEKFGKEKAVEITGAGKGKWCVVTNPSGRCCHWHLERLGFPVGGEKKAAKRVEIKLDGLTCMGCVSAVKAALEEAGANVVEIGLDRAVVEVDEEAELQKLVEAVEGAGYSARLEKR	not soluble
MSENPLLERARRFLSALRHCQVLGLTVEAADEKGLTLRLPYSQAIIGNPESGVVHGGAITTLMDTTCGISTVCVLPDFEICPTLDLRIDYMHPAEPHKDVYGFAECYRVTPNVIFTRGFAYQDDPGQPIAHVVGAFMRMGLEHHHHHH	soluble
MAKPSTSLLKRRLDIAEIVRKNGEIKVDDLAEMLSVSGVTIRNDLNYLEQQGYLKRSFGGAIYTAQPVRAAVSHEVVQSQALEHSVELELAKQVARLVCDDDTVFLGAGEVLRKALPFLGDYRDLCLIINDLSHVAPARDYIDGEIVLLGGVLGHSGQALGGEIAIQSLQQFQPSCCLVMVDHISEDGTLNVKNESAAALLSECLRLSGQSIAVVAQRPIHDVARYPVGKLNTLSAIITPQIVAAEYHSRFLADGLTNSYTNNECLTWINPTLHQARLEHHHHHH	not soluble
MGSDKIHHHHHHMALKDIISQVYRRLFNVIATVCPVRKHVVLFEAFNGKVPMDNPLYVYEALQTAHPDWKLVWSVKRQLVVEAQEKYPKLNIIPRFSAKWLLVAPVAEFWVLNARMPYWLKKNAKTTYIQTWHGTPLKRLGIDIPKVSMPGTDTSQYRQNFTAESKRWDYLIAPNQFSKDVFRRAFDFNNQFLDYGYPRNDRLVHQRQDYDAIAAIKKRIVGNKMGKVILYAPTWRDDFFIRKGMYKMNLPFSLAAVVKRLNKEDVLIIRPHYLVAESINIQGFEDNVKLCVDEDINDLYLISDLLITDYSSVMFDYAILNRPMLFYPYDLAHYQGDVRGFYFDYNKVPGPIVTNEQDFLAKLDQFLTNDGYPNETAKMMAFRTQFTEWEQGTASQRVVKLITSIDQNANNYTG	not soluble
MNSRIPEDLIERAHRGKTTKEDALLLLEVPPFELFRFADELRDLAAGDTVTYVVNRNINFTSRCTGSCGFCAFRTDDGKVLSIEEIMEKVREAEKANATEVCIQGGLLPDVGLDFYQGIVEAIKAEFPEMHVHSFSPMEVYHASRISEIPVKESLRRLKRSGLDTMPGTAAEILSDRVRKIICPAKLNTAEWIEVVTQAHAAGIPTTATMMYGHVETPEERINHMLTIREIQKETGGITEFVPLPFMPYNNPVGEKMIKEGRYATPGLEDLKVYAVSRILFHGHVDNIQASWVKLGKKFAQFSLHCGVNDLGGTLMEESISRSAGACHGEMITVDELEWMIHGAGRIPKERTTLYREAHELASRNSRKIAGCGAFE	not soluble
MAHHHHHHMRGQRSGKFAEYTATYAILKRIGLHQTVLIEKRDASVGYGVYVRDACDSGTPLLVVPSRHAFSLSTVQKLGARVRQEDLMQSPQLEILNRGVLSRLLGCTAGEWISLAWRLAIEHQRSLSPWWGWLNVLPRMQDFRTMEDESGRQCRLHRVQLLPYFIEVQGSMQEEICSAYEVLSEKNLMPSPNHFRWAVDVILTRSHRLPACWTNGEGSSVELGIIPFVDLVNGDDGGERRRNARVEVAFEVEELPRWYRDEFLQESERRHVNGEEALRRLLEEHFFALVALERDLTASEEVIMEYELVPWVTGALSHEDDLLLGRLLRYRF	not soluble
MDMEVDEAISGTSSSRLAPIEEVKPTPKQIKRIAAHSHVKGLGIDTETQEAHYEAAGFVGQAPARTAASIVVDMIRLKCMAGRAVLIAGPPATGKTAIALAMSQELGDGVPFVPLVASEVFSNEVKKTEVLMRSFRRAIGLRVKETKDVYEGEVTELSPVEASDNSGMGKTISHLVLSLKTAKGSKQLKLDPSIYDSILKQRVEVGDVIYIEANSGIVKRVGRCDVYASEFDLEADEFVPMPKGDVRKSKDIVQNVSLHDLDIANARPQGRQGDVSNIVSQLMTPKKTEVTDRLRSEINKVVNEYIESGVAELMPGVLFIDEVHMLDVECFTYLYRALESPMAPVVVFATNRGTTTVRGLGDKAPHGIPPEMLDRLMIIPTMKYNEEDIRKILVHRTEAENVQFEEKAFDLLTRLCAQTCGREVIEVEDVDRCTKLFMDRGESLKKAEEEMRQPKNKK	not soluble
MGSDKIHHHHHHMEVDNKRRHSEDELKQEAVKKIKSQEPNYAYLETVVREKLDFDSEKICCITLSPLNVYCCLVCGHYYQGRHEKSPAFIHSIDENHHVFLNLTSLKFYMLPQNVQILHDGEVQLLNSIKFAAYPTYCPKDLEDFPRQCFDLSNRTYLNGFIGFTNAATYDYAHSVLLLISHMVPVRDHFLLNHFDNQGEFIKRLSICVKKIWSPKLFKHHLSVDDFVSYLKVREGLNLNPIDPRLFLLWLFNKICSSSNDLKSILNHSCKGKVKIAKVENKPEASESVTGKVIVKPFWVLTLDLPEFSPFEDGNSVDDLPQINITKLLTKFTKSRSSSTSTVFELTRLPQFLIFHFNRFDRNSDHPVKNRNQTLVEFSSELEILHVKYRLKANVVHVVIKQPSTDGNAFNGDEKSHWITQLYDNKSEKWIEIDGINTTEREAELLFLKETFIQVWEKQE	not soluble
